The target in assay [1] is T1, LRP6 (human; form used in the assay not stated) (human, UniProt O75581 20-1253, limits assumed).
T1 construct: probably an E3-E4 fragment for SPR
T1 sequence: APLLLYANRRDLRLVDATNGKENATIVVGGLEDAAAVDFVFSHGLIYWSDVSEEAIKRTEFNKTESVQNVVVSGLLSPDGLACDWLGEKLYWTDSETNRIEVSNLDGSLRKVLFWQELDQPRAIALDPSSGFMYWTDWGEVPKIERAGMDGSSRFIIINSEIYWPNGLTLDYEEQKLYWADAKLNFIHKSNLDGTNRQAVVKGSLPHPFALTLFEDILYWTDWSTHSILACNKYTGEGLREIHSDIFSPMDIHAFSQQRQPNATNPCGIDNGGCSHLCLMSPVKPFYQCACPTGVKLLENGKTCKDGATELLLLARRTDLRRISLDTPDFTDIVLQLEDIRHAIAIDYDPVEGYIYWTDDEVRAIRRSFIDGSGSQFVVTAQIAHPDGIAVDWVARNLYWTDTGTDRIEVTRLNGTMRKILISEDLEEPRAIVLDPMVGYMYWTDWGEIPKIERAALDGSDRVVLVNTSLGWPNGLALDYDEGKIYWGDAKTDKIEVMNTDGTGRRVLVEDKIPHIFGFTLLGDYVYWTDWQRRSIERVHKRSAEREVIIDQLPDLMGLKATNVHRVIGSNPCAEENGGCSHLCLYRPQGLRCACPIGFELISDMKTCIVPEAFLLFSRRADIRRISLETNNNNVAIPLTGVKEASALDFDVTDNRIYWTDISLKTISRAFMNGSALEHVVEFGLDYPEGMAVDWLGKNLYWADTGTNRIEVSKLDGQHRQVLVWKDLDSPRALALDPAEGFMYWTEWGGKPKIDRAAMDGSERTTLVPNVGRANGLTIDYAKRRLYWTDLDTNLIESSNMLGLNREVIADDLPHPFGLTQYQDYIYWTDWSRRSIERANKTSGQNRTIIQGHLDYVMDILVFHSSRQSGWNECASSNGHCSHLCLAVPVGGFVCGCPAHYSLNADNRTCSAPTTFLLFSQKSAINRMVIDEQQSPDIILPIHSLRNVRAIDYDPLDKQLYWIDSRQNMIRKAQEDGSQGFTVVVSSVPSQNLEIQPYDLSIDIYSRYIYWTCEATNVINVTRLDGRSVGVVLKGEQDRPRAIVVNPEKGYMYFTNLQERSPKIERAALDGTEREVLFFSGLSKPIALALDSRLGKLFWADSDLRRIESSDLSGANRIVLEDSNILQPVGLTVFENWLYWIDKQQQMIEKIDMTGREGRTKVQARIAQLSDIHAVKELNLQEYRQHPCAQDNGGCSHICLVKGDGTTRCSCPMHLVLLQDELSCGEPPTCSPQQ
Briefly: SPR (BIAcore), full length IgG; LRP6 construct not stated; affinity-matured clone, full length human IgG.

Another assay deals with LRP6 on HEK293 cells (human, UniProt O75581 20-1613). In words: cell-based or functional assay.
In another assay the target is LRP6.E1-E2-Fc (human). In words: ELISA.
The target of the next assay is T2, LRP6.E3-E4-Fc (human).
T2 construct: also called LRP6.E3-4-Fc
In words: ELISA.

Assay [2] concerns the target T3, His-tagged LRP6.E3-E4 protein (human, UniProt O75581 629-1244).
T3 construct: also called LRP6.E3-4-His; printed once as LRP3.E3-E4; not shown: His tag
T3 sequence: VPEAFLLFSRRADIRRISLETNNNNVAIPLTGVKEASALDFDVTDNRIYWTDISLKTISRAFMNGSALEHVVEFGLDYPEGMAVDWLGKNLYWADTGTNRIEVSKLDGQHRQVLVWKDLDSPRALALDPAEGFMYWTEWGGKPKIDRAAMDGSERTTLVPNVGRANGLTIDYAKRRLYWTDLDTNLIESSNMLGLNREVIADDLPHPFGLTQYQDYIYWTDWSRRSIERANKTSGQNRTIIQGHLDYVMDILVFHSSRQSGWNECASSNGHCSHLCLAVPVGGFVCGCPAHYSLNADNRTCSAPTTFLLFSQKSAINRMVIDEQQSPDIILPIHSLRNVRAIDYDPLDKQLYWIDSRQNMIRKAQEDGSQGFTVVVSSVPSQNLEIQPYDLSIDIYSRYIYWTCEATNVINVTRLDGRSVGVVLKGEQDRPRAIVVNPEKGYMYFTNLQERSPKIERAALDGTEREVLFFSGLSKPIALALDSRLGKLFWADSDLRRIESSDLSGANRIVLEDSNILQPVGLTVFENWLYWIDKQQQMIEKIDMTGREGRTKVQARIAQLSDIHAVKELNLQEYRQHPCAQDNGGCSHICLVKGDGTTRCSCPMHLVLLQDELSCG
In words: phage competition ELISA, phage-displayed clone.

Assay [3] has as its target T4, LRP6.E3-E4 fragment (biotinylated, His-tagged) (Homo sapiens (Human), UniProt O75581 629-1244, biotinylated (AviTag system)).
T4 construct: BLI antigen from baculovirus-infected insect cells; also called LRP6.E3-E4 protein; not shown: His tag and AviTag
T4 sequence: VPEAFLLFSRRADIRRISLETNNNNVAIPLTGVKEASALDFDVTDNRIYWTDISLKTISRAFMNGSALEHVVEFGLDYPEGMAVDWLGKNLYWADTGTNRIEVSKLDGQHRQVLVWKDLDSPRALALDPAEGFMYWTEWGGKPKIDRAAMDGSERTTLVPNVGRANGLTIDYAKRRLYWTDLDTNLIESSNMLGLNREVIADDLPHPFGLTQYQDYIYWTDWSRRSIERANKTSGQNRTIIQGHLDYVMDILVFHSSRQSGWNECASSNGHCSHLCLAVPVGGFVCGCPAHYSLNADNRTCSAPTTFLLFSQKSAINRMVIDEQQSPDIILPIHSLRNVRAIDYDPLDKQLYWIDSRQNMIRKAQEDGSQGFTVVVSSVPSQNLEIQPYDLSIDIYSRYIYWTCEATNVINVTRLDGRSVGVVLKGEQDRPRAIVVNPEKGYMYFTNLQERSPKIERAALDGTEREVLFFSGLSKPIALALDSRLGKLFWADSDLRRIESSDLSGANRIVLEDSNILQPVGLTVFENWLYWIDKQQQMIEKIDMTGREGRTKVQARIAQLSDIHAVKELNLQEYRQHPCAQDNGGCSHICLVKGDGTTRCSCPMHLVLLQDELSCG
Briefly: biolayer interferometry, immobilized LRP6 E3-E4 fragment; Wnt3a at 200 nM; association then dissociation phase. The protocol: Biolayer interferometry was performed as previously described (Bourhis et al., 2010). Briefly, biotinylated, His-tagged LRP6 proteins were purified from baculovirus-infected insect cells using the AviTag system (GeneCopoeia). Binding kinetics were measured on the Octet RED System (ForteBio) using Streptavidin High Binding FA Biosensors loaded with 20 μg/ml LRP6 protein.
In these assays, antibody binding to LRP6 protein was allowed to reach equilibrium, and the subsequent wavelength shift in the interference pattern is shown for association and dissociation phases of Wnt protein binding.

“And” between values parts separate entries of the source, which are not always exact repeats. Equal values may be shown once.

LRP6.E1-E2-Fc (human), sequence (chain, as listed by the source limits assumed): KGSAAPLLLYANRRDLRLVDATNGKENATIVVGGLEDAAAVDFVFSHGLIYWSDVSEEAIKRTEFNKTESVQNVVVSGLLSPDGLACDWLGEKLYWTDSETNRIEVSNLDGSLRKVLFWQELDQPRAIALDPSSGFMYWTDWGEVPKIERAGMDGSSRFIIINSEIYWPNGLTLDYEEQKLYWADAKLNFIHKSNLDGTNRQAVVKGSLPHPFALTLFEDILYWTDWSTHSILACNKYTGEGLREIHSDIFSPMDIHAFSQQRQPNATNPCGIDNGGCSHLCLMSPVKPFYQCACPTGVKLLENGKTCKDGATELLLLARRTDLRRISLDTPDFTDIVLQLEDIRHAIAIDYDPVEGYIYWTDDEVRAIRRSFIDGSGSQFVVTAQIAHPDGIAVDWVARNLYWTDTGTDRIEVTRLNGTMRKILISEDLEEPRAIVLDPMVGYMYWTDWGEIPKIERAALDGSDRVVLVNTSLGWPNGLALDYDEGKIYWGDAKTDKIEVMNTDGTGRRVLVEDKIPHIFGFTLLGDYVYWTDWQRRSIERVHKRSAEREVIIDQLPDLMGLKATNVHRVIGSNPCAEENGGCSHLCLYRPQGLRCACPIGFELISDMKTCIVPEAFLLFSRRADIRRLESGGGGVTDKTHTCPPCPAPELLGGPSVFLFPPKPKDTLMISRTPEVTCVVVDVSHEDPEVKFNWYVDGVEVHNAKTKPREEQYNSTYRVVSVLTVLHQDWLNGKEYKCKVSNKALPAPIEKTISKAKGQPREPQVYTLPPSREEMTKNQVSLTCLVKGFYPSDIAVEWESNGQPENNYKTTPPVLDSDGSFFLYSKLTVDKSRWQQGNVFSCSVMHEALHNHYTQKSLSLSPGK
T2 sequence (chain, as listed by the source limits assumed): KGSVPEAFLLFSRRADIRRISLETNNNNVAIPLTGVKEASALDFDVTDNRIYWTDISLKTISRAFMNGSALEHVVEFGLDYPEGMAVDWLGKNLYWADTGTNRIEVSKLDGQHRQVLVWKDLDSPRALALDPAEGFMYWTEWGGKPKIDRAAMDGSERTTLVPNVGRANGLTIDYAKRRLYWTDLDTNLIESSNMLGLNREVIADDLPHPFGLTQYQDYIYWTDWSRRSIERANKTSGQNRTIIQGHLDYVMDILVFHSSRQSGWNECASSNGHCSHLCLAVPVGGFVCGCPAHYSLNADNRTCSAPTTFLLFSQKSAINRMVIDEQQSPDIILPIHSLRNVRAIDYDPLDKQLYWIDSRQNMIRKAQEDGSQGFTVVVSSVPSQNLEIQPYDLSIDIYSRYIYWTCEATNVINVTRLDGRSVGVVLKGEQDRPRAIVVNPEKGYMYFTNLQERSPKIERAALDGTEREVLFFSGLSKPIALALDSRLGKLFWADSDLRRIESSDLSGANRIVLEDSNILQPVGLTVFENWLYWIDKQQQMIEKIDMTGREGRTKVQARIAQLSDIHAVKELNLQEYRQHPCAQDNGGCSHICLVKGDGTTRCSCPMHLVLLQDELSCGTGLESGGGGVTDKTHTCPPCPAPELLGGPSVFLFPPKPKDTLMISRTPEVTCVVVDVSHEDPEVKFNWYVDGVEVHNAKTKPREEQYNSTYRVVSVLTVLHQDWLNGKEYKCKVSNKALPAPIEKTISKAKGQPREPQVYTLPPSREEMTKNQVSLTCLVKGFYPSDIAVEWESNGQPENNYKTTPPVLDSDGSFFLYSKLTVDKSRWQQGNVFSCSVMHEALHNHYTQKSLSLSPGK

B1: YW211.31.57 antibody (antibody, human IgG1, kappa, V domains shown)
VH: EVQLVESGGGLVQPGGSLRLSCAASGFTFTSYYISWVRQAPGKGLEWVAEISPYSGSTYYADSVKGRFTISADTSKNTAYLQMNSLRAEDTAVYYCALRARPPIRLYPRGSVMDYWGQGTLVTVSS
VL: DIQMTQSPSSLSASVGDRVTITCRASQDVSTAVAWYQQKPGKAPKLLIYSASFLYSGVPSRFSGSGSGTDFTLTISSLQPEDFATYYCQQSYTLPTTFGQGTKVEIKR
For B1, the Kd in assay [1] was 0.27 nM. In the assay with LRP6 on HEK293 cells, the “IC50, inhibition of signaling in Wnt3a-stimulated HEK293 cells” value is ~0.1 µg/ml and ~0.6 nM.

B2: YW211.03 antibody (antibody, V domains shown)
VH: EVQLVESGGGLVQPGGSLRLSCAASGFTFTGYWIHWVRQAPGKGLEWVGTISPAGGSTDYADSVKGRFTISADTSKNTAYLQMNSLRAEDTAVYYCARTDWRFHHAGEYAMDYWGQGTLVTVSS
VL: DIQMTQSPSSLSASVGDRVTITCRASQDVSTAVAWYQQKPGKAPKLLIYSASFLYSGVPSRFSGSGSGTDFTLTISSLQPEDFATYYCQQSYTTPPTFGQGTKVEIKR
As for B2, the binding result is reported as “no binding” with LRP6.E1-E2-Fc and “binds” in the assay with LRP6.E3-E4-Fc.

B3: YW211.11 antibody (antibody, V domains shown)
VH: EVQLVESGGGLVQPGGSLRLSCAASGFTFTNYDIHWVRQAPGKGLEWVASIYPAGGDTDYADSVKGRFTISADTSKNTAYLQMNSLRAEDTAVYYCARSPGWALRGAMDYWGQGTLVTVSS
VL: DIQMTQSPSSLSASVGDRVTITCRASQDVSTAVAWYQQKPGKAPKLLIYSASFLYSGVPSRFSGSGSGTDFTLTISSLQPEDFATYYCQQSYTTPPTFGQGTKVEIKR
Regarding B3, the binding result with LRP6.E1-E2-Fc is recorded as “no binding”; with LRP6.E3-E4-Fc, “binds”.

B4: YW211.31.11 antibody (antibody, V domains shown)
VH: EVQLVESGGGLVQPGGSLRLSCAASGFTFGFYYLSWVRQAPGKGLEWVAEISPYSGSTYYADSVKGRFTISADTSKNTAYLQMNSLRAEDTAVYYCALRARPPIRLHPRGSVMDYWGQGTLVTVSS
VL: DIQMTQSPSSLSASVGDRVTITCRASQDVSTAVAWYQQKPGKAPKLLIYSASFLYSGVPSRFSGSGSGTDFTLTISSLQPEDFATYYCQQSYAIPTTFGQGTKVEIKR
As for B4, the binding result in assay [2] is recorded as “binds”.

B5: YW211.12 antibody (antibody, V domains shown)
VH: EVQLVESGGGLVQPGGSLRLSCAASGFTFTGNDIHWVRQAPGKGLEWVGRIYPYGGYTDYADSVKGRFTISADTSKNTAYLQMNSLRAEDTAVYYCAKEVTYHLFDYWGQGTLVTVSS
VL: DIQMTQSPSSLSASVGDRVTITCRASQDVSTAVAWYQQKPGKAPKLLIYSASFLYSGVPSRFSGSGSGTDFTLTISSLQPEDFATYYCQQSYTTPPTFGQGTKVEIKR
As for B5, the binding result in the assay with LRP6.E1-E2-Fc is “no binding”; with LRP6.E3-E4-Fc, “binds”.

B6: YW211.33 antibody (antibody, V domains shown)
VH: EVQLVESGGGLVQPGGSLRLSCAASGFTFSGSSISWVRQAPGKGLEWVGVISPSSGATYYADSVKGRFTISADTSKNTAYLQMNSLRAEDTAVYYCARWPAGAFLGYYGMDYWGQGTLVTVSS
VL: DIQMTQSPSSLSASVGDRVTITCRASQDVSTAVAWYQQKPGKAPKLLIYSASFLYSGVPSRFSGSGSGTDFTLTISSLQPEDFATYYCQQSYTTPPTFGQGTKVEIKR
B6: the binding result with LRP6.E1-E2-Fc was “no binding”; with LRP6.E3-E4-Fc, “binds”.

B7: YW211.08 antibody (antibody, V domains shown)
VH: EVQLVESGGGLVQPGGSLRLSCAASGFTFTDYWIHWVRQAPGKGLEWVAGISPDGGSTYYADSVKGRFTISADTSKNTAYLQMNSLRAEDTAVYYCARWSYISRYFSSVMDYWGQGTLVTVSS
VL: DIQMTQSPSSLSASVGDRVTITCRASQDVSTAVAWYQQKPGKAPKLLIYSASFLYSGVPSRFSGSGSGTDFTLTISSLQPEDFATYYCQQSYTTPPTFGQGTKVEIKR
Regarding B7, the binding result with LRP6.E1-E2-Fc was “no binding”; in the assay with LRP6.E3-E4-Fc it was “binds”.

B8: YW211.31.62 antibody (antibody, human IgG1, kappa, V domains shown)
VH: EVQLVESGGGLVQPGGSLRLSCAASGFTFGYYYISWVRQAPGKGLEWVAEISPYSGSTYYADSVKGRFTISADTSKNTAYLQMNSLRAEDTAVYYCALRARPPIRLHPRGSVMDYWGQGTLVTVSS
VL: DIQMTQSPSSLSASVGDRVTITCRASQDVSTAVAWYQQKPGKAPKLLIYSASFLYSGVPSRFSGSGSGTDFTLTISSLQPEDFATYYCQQSYTTPPTFGQGTKVEIKR
Turning to B8, binding in assay [1] was characterised by a dissociation constant (Kd) of 0.17 nM. The “IC50, inhibition of signaling in Wnt3a-stimulated HEK293 cells” value in the assay with LRP6 on HEK293 cells is ~0.1 µg/ml and ~0.6 nM.

B9: YW211.31.35 antibody (antibody, V domains shown)
VH: EVQLVESGGGLVQPGGSLRLSCAASGFTFGFYYISWVRQAPGKGLEWVAEISPYSGSTYYADSVKGRFTISADTSKNTAYLQMNSLRAEDTAVYYCALRARPPIRLHPRGSVMDYWGQGTLVTVSS
VL: DIQMTQSPSSLSASVGDRVTITCRASQDVSTAVAWYQQKPGKAPKLLIYSASFLYSGVPSRFSGSGSGTDFTLTISSLQPEDFATYYCQQSYTTPPTFGQGTKVEIKR
As for B9, the binding result in assay [2] is recorded as “binds”.

B10: Wnt3a (ligand, human, UniProt P56704 19-352, looked up)
chain: SYPIWWSLAVGPQYSSLGSQPILCASIPGLVPKQLRFCRNYVEIMPSVAEGIKIGIQECQHQFRGRRWNCTTVHDSLAIFGPVLDKATRESAFVHAIASAGVAFAVTRSCAEGTAAICGCSSRHQGSPGKGWKWGGCSEDIEFGGMVSREFADARENRPDARSAMNRHNNEAGRQAIASHMHLKCKCHGLSGSCEVKTCWWSQPDFRAIGDFLKDKYDSASEMVVEKHRESRGWVETLRPRYTYFKVPTERDLVYYEASPNFCEPNPETGSFGTRDRTCNVSSHGIDGCDLLCCGRGHNARAERRREKCRCVFHWCCYVSCQECTRVYDVHTCK
notes: also called purified human Wnt3a
Consider B10, for which the binding result in assay [3] is recorded as “binds”.

These data come from patent US20110256127A1 (Genentech, published 2011).
